What was measured:
Pseudomonas aeruginosa [1] = assay: MIC test strips on bacteria dispersed from a biofilm by PsIG versus planktonic bacteria; assay type: cell-based; settings: 24-hour biofilm treated with PsIG 1 hour; MIC read after 16 hours at 37 degrees centigrade
Protocol: Planktonic Pseudomonas aeruginosa may be cultured for 24 hours with shocking in LBNS medium, and 0.2 ml of such culture may be used as control. As shown in FIGS. 8(a) and 8(c), a control group have shown measurement of MIC values of TOB, CIP by a planktonic bacteria. FIGS. 8(b) and 8(d) have shown measurement of MIC values of TOB, CIP by bacteria cells dispersed from the biofilm after the treatment of the PsIG protein.

[2] = test system: biofilm of Pseudomonas aeruginosa; assay: Inhibition of biofilm formation, crystal violet staining, 96-well plate; assay type: cell-based
Source text: (§1) The biomass of the biofilm has been detected by a crystal violet staining method. The method including: discarding cultures (bacteria that are not attached on wells.) in the wells, and washing three times. Then, the biofilm may be stained with 0.1% crystal violet, and washed three times, then the crystal violet combined in the biofilm may be dissolved with 30% acetic acid, and the value of OD560 thereof (for example, the concentration of the crystal violet) may be measured by a spectrophotometer to measure the biomass of the biofilm was measured. PAO1-derived PsI polysaccharide negative strain (PAO1, A psi) may be used as a negative control, and PAO1-derived PsI polysaccharide inducible strain (PAO1, PBAD-psI) (arabinose used as an inducer) may be used as positive control.
A fresh single colony of Pseudomonas aeruginosa on the LBNS plate may be inoculated in LBNS liquid medium, carried out shake culture at 200 rpm at 37 degrees centigrade for 12 hours, and then inoculated in Jensen's medium with 1% inoculum dose, at the same time, different concentrations of PsIG protein may be added. After static culture in a 96-well plate at 30 degrees centigrade for 24 hours, liquid cultures were discarded and the biofilm may be stained with the crystal violet, and biomass of the biofilm was detected, in which specific operations may refer to the steps in Example 1. […]

[3] = test system: formed biofilm of Pseudomonas aeruginosa; assay: Disruption of formed biofilm, crystal violet staining; assay type: cell-based
Source text: as §1
A fresh single colony of Pseudomonas aeruginosa on the LBNS plate may be inoculated in LBNS liquid medium, carried out shake culture at 200 rpm at 37 degrees centigrade for 12 hours, and then inoculated in Jensen's media with 1% inoculum dose, with static culture in a 96-well plate at 30 degrees centigrade for 24 hours. Cultures may be discarded and the biofilm (surface-attached bacteria) was washed with 0.8% physiological saline for three times. 100 μl Jensen's media containing 1 nM PsIG may be added into wells and the biofilm treated for 5 or 30 minutes. Then, biomass of the treated biofilm may be detected by the crystal violet staining method, in which specific operation steps of the crystal violet staining method may refer to Example 2.
At the same time, Jensen's media without addition of PsIG may be used as a control group.
A fresh single colony of Pseudomonas aeruginosa on the LBNS plate may be inoculated in LBNS liquid medium, carried out shake culture at 200 rpm at 37 degrees centigrade for 12 hours, and then inoculated in Jensen's media with 1% inoculum dose, and carried out static culture in a 96-well plate at 30 degrees centigrade for 24 hours. Cultures were discarded and the biofilm was washed with 0.8% physiological saline for three times. 100 μl Jensen's media containing 50 nM PsIG protein was added and the biofilm was treated for different times. Then, biomass of the treated biofilms may be tested by a crystal violet staining method, in which specific operation steps of the crystal violet staining method may refer to Example 2.

[4] = test system: biofilm of Pseudomonas syringae; assay: Inhibition of biofilm formation, crystal violet staining; assay type: cell-based; settings: 50 nM PsIG
Pseudomonas aeruginosa [5] = assay: Inhibitory zone on LBNS plate with filter paper; assay type: cell-based; settings: 50 nM PsIG; 24 hours at 37 degrees centigrade
Protocol: As shown in FIG. 9(a), four experimental groups may be set for buffer; 50 nM PsIG; tobramycin (TOB); combination of TOB and PsIG, respectively. Experiment 2:
As shown in FIG. 9(b), four experimental groups may be set for buffer; 50 nM PsIG; ciprofloxacin (CIP); combination of CIP and PsIG, respectively.

Caco2 = settings: PsIG treatment 12 hours
Source text: (§2) Cytotoxicity of a PsIG protein may be detected by human colon epithelial cell line Caco2 and HT-29.

HT-29 = settings: PsIG treatment 12 hours
Source text: as §2

PAO1 biofilm = assay: Clearance of PsIG-treated biofilm by macrophages, CFU count; assay type: cell-based, Pseudomonas aeruginosa; settings: biofilm treated with PsIG 1 hour, then macrophages 2 hours; versus controls without PsIG
Protocol: The PAO1 biofilm cultured on glass coverslips for 24 hours was treated with PsIG and co-incubated with macrophages, and then scraped and resuspended in 1 ml of physiological saline to quantify colony formation unit (CFU). The mean and SD values of CFU obtained by three repeated experiments were shown in the figure and T test (*, P<0.01) was performed for different experimental groups.
The PAO1 biofilm cultured on glass coverslips for 24-hours may be treated with the PsIG protein for 1 hour, and then incubated with macrophages for 2 hours, and remaining biofilm may be scraped and resuspended in 1 ml of physiological saline for colony formation unit (CFU).

[6] = test system: biofilm of Pseudomonas aeruginosa on implants; assay: Mouse implant infection model; assay type: in vivo; settings: mouse peritoneum, local treatment, 24 hours; 50 nM PsIG and/or 50 mg kg-1 tobramycin
Protocol: FIG. 12 illustrates a mouse implant infections model. PsIG improves host clearance of implant biofilms and show combinatory effect with Tob in eradication of implant biofilms in vivo. The horizontal dashed line represents a detection limit of the experiment, which is shown as mean (*P<0.01) of the biofilm counts in five mice.
Implants coated by the biofilm of Pseudomonas aeruginosa may be inserted into mouse peritoneum and the following treatments may be performed locally: 50 nM PsIG treatment alone; 50 mg kg-1 tobramycin treatment alone; the 50 nM PsIG and the 50 mg kg-1 tobramycin co-treatment. After culture in vivo for 24 hours, mice may be sacrificed so as to harvest the implants, and the implants may be removed out and counted on LB plates after homogenization. The number of Pseudomonas aeruginosa on the implants may be tabulated with a format of CFU/ml.

[7] = test system: L4-stage Caenorhabditis elegans; assay: Toxicity of PsIG-dispersed biofilm bacteria to C. elegans; assay type: in vivo; settings: co-incubated 25 degrees centigrade, 48 hours; live/dead nematodes
Protocol: The experiment may be carried out by using C. elegans as a host model.
Two experimental groups may be set for Experimental group 1 and Experimental group 2, respectively.
Experiment group 1: the bacterial cells collected from a PsIG-treated bacterial biofilm (a biofilm of Pseudomonas aeruginosa) may be co-incubated with L4-stage Caenorhabditis elegans.
Experimental group 2: co-incubation the planktonic culture of Pseudomonas aeruginosa grown for 24 hours may be co-incubated L4-stage Caenorhabditis elegans.
Experimental group 1 and Experimental group 2 were placed in 96-well plates respectively and co-incubated at 25 degrees centigrade for 48 hours. […] Each group was repeated for three times, the results are expressed with a format of the mean value±SD value.

[8] = Degradation of PsI polysaccharide in vitro, immunoblotting; assay type: biochemical, Pseudomonas aeruginosa; settings: 50 nM PsIG
Source text: Preparation and purification of PsI polysaccharide may be carried out with reference to published document (Molecular Microbiology 2009; 73:622-638, titled Genetic and biochemical analyses of the Pseudomonas aeruginosa PsI exopolysaccharide reveal overlapping roles for polysaccharide synthesis enzymes in PsI and LPS production, written by Byrd M S, Sadovskaya I, Vinogradov E et al.)
The standard curve may be prepared according to the following method: PsI polysaccharide prepared by the above method may be diluted 10 times with gradient and the PsI polysaccharide may be detected by immunoblotting.
To Solution 1 (PBS phosphate buffer), PsI polysaccharide and 50 nM of the PsIG protein obtained in Example 16 may be added to obtain Reaction system 1, the concentration of PsI polysaccharide in reaction system 1 may be 4 mg/ml, and the concentration of PsIG protein may be 50 nM. The eight same reaction systems 1 may be incubated at 20 degrees centigrade, 25 degrees centigrade, 30 degrees centigrade, 37 degrees centigrade, 40 degrees centigrade, 45 degrees centigrade, 50 degrees centigrade and 55 degrees centigrade for one hour, respectively, and then remaining PsI polysaccharide may be detected with a PsI polysaccharide antibody (the PsI polysaccharide antibody may be obtained by using PsI polysaccharide as immunogen) by immunoblotting. […]

[9] = test system: mouse macrophages (RAW264.7)

Row | Molecule | MIC values for bacteria dispersed from biofilms by PsIG compared with planktonic cells (Pseudomonas aeruginosa [1]) | inhibitory rate on biofilm formation ([2]; PsIG protein at 1 nM, static culture 30 degrees centigrade, 24 hours) [%] | inhibition of formation of the biofilm ([2]; concentration l0nm-50nm, static culture 24 hours) | reduction of biomass of formed biofilm ([3]; 1 nM PsIG, treated 30 minutes, 24-hour biofilm) [%] | effect on biomass of formed biofilm ([3]; 1 nM PsIG, treated five minutes, 24-hour biofilm) | reduction of biomass of formed biofilm ([3]; 50 nM PsIG, treated 10 minutes, 24-hour biofilm) [%] | effect on biomass of formed biofilm ([3]; 50 nM PsIG, treated 30 minutes, 24-hour biofilm) | effect on biomass of formed biofilm ([3]; 50 nM PsIG, treated five minutes, 24-hour biofilm) | effect on biomass of formed biofilm ([3]; 50 nM PsIG, treated more than 30 minutes) | inhibitory effect on biofilm [4] | inhibitory zone, PsIG alone (Pseudomonas aeruginosa [5]) | effect on activity of colon epithelial cells (MTT) (Caco2) | effect on activity of colon epithelial cells (MTT) (HT-29) | number of remaining bacteria of the biofilm (PAO1 biofilm) | number of bacteria on the implants [6] | toxicity of PsIG-dispersed biofilm bacteria versus planktonic bacteria [7] | temperature of highest degradation rate of PsI polysaccharide ([8]; 4 mg/ml PsI, one hour) [degrees centigrade] | reduction of amount of PsI polysaccharide compared with untreated control ([8]; 30 degrees centigrade, 1 hour) [%] | toxic effects on macrophages [9]
1 | O=C(O)c1cn(C2CC2)c2cc(N3CCNCC3)c(F)cc2c1=O [ciprofloxacin] | lower | – | – | – | – | – | – | – | – | – | – | – | – | – | – | – | – | – | –
2 | NC[C@H]1O[C@H](O[C@H]2[C@H](O)[C@@H](O[C@H]3O[C@H](CO)[C@@H](O)[C@H](N)[C@H]3O)[C@H](N)C[C@@H]2N)[C@H](N)C[C@@H]1O [tobramycin] | lower | – | – | – | – | – | – | – | – | – | – | – | – | – | – | – | – | – | –
3 | PsIG protein: Protein from Pseudomonas aeruginosa PAO1, purified PsIG (31-442) of SEQ ID NO.: 2, expressed in E. coli, 47 kDa (protein, listed as Pseudomonas aeruginosa) EIQVLKAPRAVVWKDFLGVNAQFLWFSPERYNKQIDRLQDLGLEWVRLDLHWDRLETAEDQYQLASLDQLVKDLEARQLKSVFYLVGSARFITTAPFYSPFQDQYPPRDPEVFARRMAMLSQRYPSVAAWQVWNEPNLIGFWRPKADPEGYAKLLQASTIALRMVDPEKPVVSAGMAFFSEMPDGRTMFDALGHLGVESLGTIATYHPYTQLPEGNYPWNLDFVSHANQINRALRNAGVPAIWSTEWGWSAYKGPKELQDIIGVEGQADYVLRRLALMSALDYDRIFLFTLSDLDQRASVRDRDYGLLDLDANPKPVYLALQRFLKVTGPKLRPADPPVTEDLPDGSFSIGWTREDGRNVWLFWSARGGNVRLPKLKEATLHDPLSGKVTPLSGSDGLEVPVKSSLQMLVWE | – | 50 | significantly inhibit | 50 | no effect | 50 | reduced to a level similar to the PsI polysaccharide-negative strain | significantly reduced | no more significant reduction | same inhibitory effects | does not produce inhibitory zone | no effect | no effect | least | ≈ 10^3 CFU/mL | no significant difference in toxicity | 45 | 75 | not shown any toxic effects
